These results are taken from publication PMC9302814.

For the experiment, the target named is SARS-CoV-2 Spike. In words: SPR.

pKd: −log10 of the molar value.

As to CC40.8, the pKd is 8.80 and the koff stood at 0.00038 s⁻¹.

Take CV3-25: the negative-log Kd (pKd) was 8.60 and the koff came out at 0.00061 s⁻¹.

Take S2P6: the pKd is 8.01 and the dissociation rate constant (koff) turned out to be 0.0033 s⁻¹.
